The values below are quoted from earlier work in PMC8138766.

Like-named read-outs stand apart in the source and are kept apart here.

The target of series [1] is V-ATPase subunit C (Saccharomyces cerevisiae) (UniProt P31412).
Series [2] has the same target. The source holds these as a separate data set.

Sequence of V-ATPase subunit C (Saccharomyces cerevisiae) (P31412 2-392): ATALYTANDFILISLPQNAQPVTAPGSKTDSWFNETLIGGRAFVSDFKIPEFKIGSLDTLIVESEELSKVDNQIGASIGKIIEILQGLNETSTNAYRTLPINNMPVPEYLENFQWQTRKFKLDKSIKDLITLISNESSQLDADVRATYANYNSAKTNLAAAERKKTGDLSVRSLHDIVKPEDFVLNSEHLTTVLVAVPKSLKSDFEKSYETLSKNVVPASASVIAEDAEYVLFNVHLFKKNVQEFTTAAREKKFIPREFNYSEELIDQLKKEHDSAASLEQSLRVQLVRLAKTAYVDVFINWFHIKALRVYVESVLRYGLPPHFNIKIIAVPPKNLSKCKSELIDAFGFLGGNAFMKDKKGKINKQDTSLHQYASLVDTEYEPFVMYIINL
Sequence of V1 (P17255 2-1071): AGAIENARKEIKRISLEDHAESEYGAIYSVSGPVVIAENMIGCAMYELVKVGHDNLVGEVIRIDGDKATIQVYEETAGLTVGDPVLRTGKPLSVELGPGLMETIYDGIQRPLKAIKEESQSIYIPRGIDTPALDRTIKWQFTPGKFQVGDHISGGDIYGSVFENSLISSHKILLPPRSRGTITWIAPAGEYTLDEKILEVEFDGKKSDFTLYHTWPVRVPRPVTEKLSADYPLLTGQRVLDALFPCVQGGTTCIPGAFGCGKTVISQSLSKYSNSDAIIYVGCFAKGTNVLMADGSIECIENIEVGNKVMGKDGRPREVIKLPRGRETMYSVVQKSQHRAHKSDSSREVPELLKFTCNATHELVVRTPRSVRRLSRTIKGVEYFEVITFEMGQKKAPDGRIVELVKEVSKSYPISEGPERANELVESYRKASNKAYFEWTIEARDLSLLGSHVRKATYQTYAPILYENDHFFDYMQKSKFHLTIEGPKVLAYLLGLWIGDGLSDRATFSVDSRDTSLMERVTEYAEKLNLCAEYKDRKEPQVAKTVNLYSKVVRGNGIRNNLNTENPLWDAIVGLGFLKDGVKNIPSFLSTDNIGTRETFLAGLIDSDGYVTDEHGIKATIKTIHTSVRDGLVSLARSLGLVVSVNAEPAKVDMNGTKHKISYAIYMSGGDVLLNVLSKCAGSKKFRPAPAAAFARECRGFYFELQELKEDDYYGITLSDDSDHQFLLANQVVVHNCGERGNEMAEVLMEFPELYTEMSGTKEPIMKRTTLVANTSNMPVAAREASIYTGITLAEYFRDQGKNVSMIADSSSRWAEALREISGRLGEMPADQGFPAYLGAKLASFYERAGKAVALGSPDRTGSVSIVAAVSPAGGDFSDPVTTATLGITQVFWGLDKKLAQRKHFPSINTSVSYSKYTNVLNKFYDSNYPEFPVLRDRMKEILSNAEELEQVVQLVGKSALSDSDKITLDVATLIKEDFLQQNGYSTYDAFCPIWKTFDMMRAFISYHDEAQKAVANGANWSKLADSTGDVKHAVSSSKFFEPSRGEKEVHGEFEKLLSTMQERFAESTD
Sequence of V1 (P16140 2-517, further chain): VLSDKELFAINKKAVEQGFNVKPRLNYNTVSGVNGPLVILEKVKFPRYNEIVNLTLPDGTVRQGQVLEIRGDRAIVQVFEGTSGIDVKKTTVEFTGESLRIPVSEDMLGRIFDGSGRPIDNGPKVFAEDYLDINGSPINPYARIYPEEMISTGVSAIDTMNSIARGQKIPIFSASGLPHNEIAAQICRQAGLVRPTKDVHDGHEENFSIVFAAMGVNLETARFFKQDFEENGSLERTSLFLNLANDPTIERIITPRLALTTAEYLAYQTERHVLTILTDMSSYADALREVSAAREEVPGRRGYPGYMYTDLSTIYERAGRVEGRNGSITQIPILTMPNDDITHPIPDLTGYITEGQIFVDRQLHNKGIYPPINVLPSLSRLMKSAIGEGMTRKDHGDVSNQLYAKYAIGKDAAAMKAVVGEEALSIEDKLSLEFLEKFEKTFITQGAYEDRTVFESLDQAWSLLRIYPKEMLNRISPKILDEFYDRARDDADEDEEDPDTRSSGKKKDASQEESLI
Sequence of EG stalk (P22203 2-233): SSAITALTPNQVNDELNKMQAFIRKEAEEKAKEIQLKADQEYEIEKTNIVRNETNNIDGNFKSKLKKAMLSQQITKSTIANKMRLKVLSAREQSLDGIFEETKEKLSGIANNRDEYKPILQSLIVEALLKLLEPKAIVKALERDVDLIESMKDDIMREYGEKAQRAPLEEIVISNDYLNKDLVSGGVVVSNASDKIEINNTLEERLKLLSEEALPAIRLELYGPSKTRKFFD
Sequence of EG stalk (P48836 2-114, further chain): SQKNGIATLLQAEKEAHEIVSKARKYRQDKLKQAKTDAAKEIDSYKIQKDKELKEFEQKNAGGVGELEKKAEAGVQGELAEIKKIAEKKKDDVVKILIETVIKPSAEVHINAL

EG stalk (from UniProt P22203): the Kd in series [1] was 42 nM. With V1 (from UniProt P17255), the Kd in series [2] was 0.7 nM.

By Kd is commonly meant a measure of binding affinity in units of concentration.
